Results on four molecules are retold here after US20110053163A1, “Biomarker” (BIOVATOR TECHNOLOGIES AB, priority 2007, published 2011).

One assay deals with MM6-cells. The experiment in a line: CPA: IL-10 levels of stimulated MM6 cells, ELISA. Format: cell-based, human. Conditions: 25-200 μg/ml; 48 hours; with IFN-γ 100 U/ml. The source says:
(§1) The instructions of the manufacturers were followed. All these tests are enzyme immunoassays (EIA:s). The principle is that microtiter plate wells are labelled with a cytokine specific capture antibody. If cytokine is present in the samples added to the wells it will be captured to the bottom of the well. […] The reaction is thereafter measured as colour developed after addition of a substrate for the enzyme. The values for the test wells are compared with a standard curve obtained by adding a series of known amounts of cytokine. The values obtained for control wells with no substance added are used as background values for cytokine levels.
(§2) The myelomonocytic cell line MonoMac-6 (obtained from DSMZ, accession number ACC 124, Prof. H. W. L. Ziegler-Heitbrock, Inst. For Immunology, University of Munich, Munich) was cultured in cell culture flasks (Corning). Cells were cultured in RPMI 1640 medium (Gibco BRL), containing 20 mM HEPES and L-glutamine and supplemented with 10% heat-inactivated foetal bovine serum (Gibco BRL), penicillin (100 U/mL; Sigma-Aldrich), streptomycin (100 μg/mL; Sigma-Aldrich), sodium pyruvate (1.0 mM;Gibco BRL), human insulin (9 μg/mL; Gibco BRL) and non-essential amino acids (Gibco BRL) or cultured in Panserin 411 (Pan Biotech) supplemented with penicillin (100 U/mL), streptomycin (100 μg/mL).
The cells were split approximately 1:3 the day before stimulation. The stimulation procedure was performed in three steps. The first step was pre-dilution of test substances, to double the final concentration, in cell culture medium. […] The number of cells was then determined by trypan blue exclusion and the cells were diluted to twice the final test concentration (2×10^6 cells/mL) if not otherwise indicated and 100 μl of cell suspension was added per well in 96 well tissue culture plates (Corning). […] The cell suspension was transferred to new cell culture plates and stored at −20° C. until analyzed. Thereafter the cell suspension was analyzed for presence of neopterin and IL-10 by ELISA (IBL-Hamburg) following the manufacturers instructions.
In general terms: ELISA stands for enzyme-linked immunosorbent assay.

The subject of a further assay is MonoMac-6 cells. The experiment in a line: Cytokine Profile Assay (CPA): neopterin production by stimulated MonoMac-6 cells, ELISA. Conditions: with IFN-γ 100 U/ml. Format: cell-based, human.
Excerpt: as §1, §2
The cells were split approximately 1:3 the day before stimulation. The stimulation procedure was performed in three steps. The first step was pre-dilution of test substances, to double the final concentration, in cell culture medium. Furthermore, Interferon-γ (IFN-γ) (100 U, PreproTech) was added in the cell culture media for 24 or 48 hours during stimulation of cells with test substances. The number of cells was then determined by trypan blue exclusion and the cells were diluted to twice the final test concentration (2×10^6 cells/mL) if not otherwise indicated and 100 μl of cell suspension was added per well in 96 well tissue culture plates (Corning). Finally, a 100 μl of pre-diluted test substance (triplicate cultures) was added to the tissue culture plates. […] The stimulated cells were cultured at 37° C., 5% CO2, for 24 or 48 hours. The cell suspension was transferred to new cell culture plates and stored at −20° C. until analyzed. Thereafter the cell suspension was analyzed for presence of neopterin and IL-10 by ELISA (IBL-Hamburg) following the manufacturers instructions.

Where [1] appears, read: serum free Panserin media, 48 hrs.

B1: Der p 1: allergenic protein tested for IL-10 induction (protein, UniProt P08176 99-320, looked up)
Peptidase 1: TNACSINGNAPAEIDLRQMRTVTPIRMQGGCGSCWAFSGVAATESAYLAYRNQSLDLAEQELVDCASQHGCHGDTIPRGIEYIQHNGVVQESYYRYVAREQSCRRPNAQRFGISNYCQIYPPNVNKIREALAQTHSAIAVIIGIKDLDAFRHYDGRTIIQRDNGYQPNYHAVNIVGYSNAQGVDYWIVRNSWDTNWGDNGYGYFAANIDLMMIEEYPYVVIL
As to B1, the “IL-10 levels (in words)” value in the assay on MM6-cells is “induced increased IL-10 levels in a dose dependent manner”.

B2: Gal d 3: native allergen component from Phadia (Conalbumin, Egg, white) (protein, UniProt P02789 20-705, looked up)
Ovotransferrin: APPKSVIRWCTISSPEEKKCNNLRDLTQQERISLTCVQKATYLDCIKAIANNEADAISLDGGQAFEAGLAPYKLKPIAAEVYEHTEGSTTSYYAVAVVKKGTEFTVNDLQGKTSCHTGLGRSAGWNIPIGTLLHRGAIEWEGIESGSVEQAVAKFFSASCVPGATIEQKLCRQCKGDPKTKCARNAPYSGYSGAFHCLKDGKGDVAFVKHTTVNENAPDQKDEYELLCLDGSRQPVDNYKTCNWARVAAHAVVARDDNKVEDIWSFLSKAQSDFGVDTKSDFHLFGPPGKKDPVLKDLLFKDSAIMLKRVPSLMDSQLYLGFEYYSAIQSMRKDQLTPSPRENRIQWCAVGKDEKSKCDRWSVVSNGDVECTVVDETKDCIIKIMKGEADAVALDGGLVYTAGVCGLVPVMAERYDDESQCSKTDERPASYFAVAVARKDSNVNWNNLKGKKSCHTAVGRTAGWVIPMGLIHNRTGTCNFDEYFSEGCAPGSPPNSRLCQLCQGSGGIPPEKCVASSHEKYFGYTGALRCLVEKGDVAFIQHSTVEENTGGKNKADWAKNLQMDDFELLCTDGRRANVMDYRECNLAEVPTHAVVVRPEKANKIRDLLERQEKRFGVNGSEKSKFMMFESQNKDLLFKDLTKCLFKVREGTTYKEFLGDKFYTVISSLKTCNPSDILQMCSFLEGK
With B2, the “neopterin response (in words)” value with MonoMac-6 cells (setting [1]) was “increased in a dose dependent manner”.

B3: Gal d 2: native allergen component from Phadia (Ovalbumin, Egg white) (protein, UniProt P01012 2-386, looked up)
Ovalbumin: GSIGAASMEFCFDVFKELKVHHANENIFYCPIAIMSALAMVYLGAKDSTRTQINKVVRFDKLPGFGDSIEAQCGTSVNVHSSLRDILNQITKPNDVYSFSLASRLYAEERYPILPEYLQCVKELYRGGLEPINFQTAADQARELINSWVESQTNGIIRNVLQPSSVDSQTAMVLVNAIVFKGLWEKAFKDEDTQAMPFRVTEQESKPVQMMYQIGLFRVASMASEKMKILELPFASGTMSMLVLLPDEVSGLEQLESIINFEKLTEWTSSNVMEERKIKVYLPRMKMEEKYNLTSVLMAMGITDVFSSSANLSGISSAESLKISQAVHAAHAEINEAGREVVGSAEAGVDAASVSEEFRADHPFLFCIKHIATNAVLFFGRCVSP
On to B3, for which the “IL-10 levels (in words)” value with MM6-cells was “induced increased IL-10 levels in a dose dependent manner”. Besides, the “neopterin response (in words)” value with MonoMac-6 cells (setting [1]) is recorded as “increased in a dose dependent manner”.

B4: Alt a 1: native allergen component from Phadia (Alternaria) (protein, UniProt P79085 19-157, looked up)
Major allergen Alt a 1: APLESRQDTASCPVTTEGDYVWKISEFYGRKPEGTYYNSLGFNIKATNGGTLDFTCSAQADKLEDHKWYSCGENSFMDFSFDSDRSGLLLKQKVSDDITYVATATLPNYCRAGGNGPKDFVCQGVADAYITLVTLPKSS
B4: the “IL-10 levels (in words)” value with MM6-cells is “induced increased IL-10 levels in a dose dependent manner”. Moreover, the “neopterin response (in words)” value with MonoMac-6 cells (proteins, RPMI+10% FCS, 24 hrs, over the tested concentrations) is listed as “increased in a dose dependent manner”; in the assay with MonoMac-6 cells (serum free Panserin media, 24 hrs), “increased in a dose dependent manner”; with MonoMac-6 cells (setting [1]), “increased in a dose dependent manner”.
